Tests used:
[1] = test system: fracture-healing in rabbits; conditions: no distraction; cited from earlier work
[2] = test system: distracted tibia (callus distraction) of Yucatan mini-pigs; assay: Mechanical torsion testing of distracted tibia after callus distraction in GH-treated mini-pigs; format: in vivo, Yucatan mini-pig; conditions: at sacrifice
Protocol: After sacrifice, the right and left limb were dissected. The soft tissue around the joints was removed, and the ends of the tibia were casted in Beracryl. The constructs were placed in a materials testing machine (Zwick, Ulm, Germany), and torsional moments were applied. Resulting displacements and torsional moments were recorded. The test was conducted with a speed of 30° per minute until failure. The system automatically terminated the test at a torque of 20%.
The final bone torsional strength of a mini-pig group treated with growth hormone was investigated relative to a control group.
30 mature female Yucatan mini-pigs were equally distributed into two treatment groups. Mini-pigs in the study group received a daily injection of recombinant porcine growth hormone (r-pGH: 100 μg/kg), the mini-pigs in the control group received sodium chloride as placebo. The left tibiae and fibulae were osteotomized and stabilized with an external fixator. Full weight bearing was permitted. The legs were distracted twice daily at 2 mm/day for 10 days and then allowed to consolidate for 10 days. After sacrifice, torsional moments were applied to the distracted and the contralateral tibia in a material testing machine and the maximum torsional moment was determined. Four animals were removed from the study due to bone infection or surgery failure and data of 2 animals were lost due to test machine failure. A t-test was used to determine differences in maximum torsional moments between the treatment groups.

healing fracture in dogs = conditions: compared to non-treated dogs; cited from earlier work

## growth hormone
[1]
  effect on fracture-healing: no effect

B1: GH: recombinant porcine growth hormone (r-pGH), homologous GH injected daily at 100 μg/kg in mini-pigs (protein, UniProt P01248 27-216, looked up)
Somatotropin: FPAMPLSSLFANAVLRAQHLHQLAADTYKEFERAYIPEGQRYSIQNAQAAFCFSETIPAPTGKDEAQQRSDVELLRFSLLLIQSWLGPVQFLSRVFTNSLVFGTSDRVYEKLKDLEEGIQALMRELEDGSPRAGQILKQTYDKFDTNLRSDDALLKNYGLLSCFKKDLHKAETYLRVMKCRRFVESSCAF
[2]; r-pGH 100 μg/kg daily injection, distraction 2 mm/day for 10 days, consolidation 10 days, p=0.001 vs placebo
  maximum torsional moment of distracted tibia: 19.5±7.8 Nm
[2]; r-pGH 100 μg/kg daily, p<0.001 vs control
  maximum torsional moment in comparison to the intact contralateral tibia: 64±22.4%
[2]; r-pGH 100 μg/kg daily, versus placebo group
  higher maximum torsional moment than placebo group: 131%

B2: cST: canine somatotropin given to dogs in the study of Buonomo et al. (protein, UniProt P33711 27-216, looked up)
Somatotropin: FPAMPLSSLFANAVLRAQHLHQLAADTYKEFERAYIPEGQRYSIQNAQAAFCFSETIPAPTGKDEAQQRSDVELLRFSLLLIQSWLGPVQFLSRVFTNSLVFGTSDRVYEKLKDLEEGIQALMRELEDGSPRAGQILKQTYDKFDTNLRSDDALLKNYGLLSCFKKDLHKAETYLRVMKCRRFVESSCAF
Healing fracture in dogs
  increase of stiffness of the healing fracture: 5 fold
  increase of strength of the healing fracture: 3 fold
